Biological target: 4G10 anti-phosphotyrosine monoclonal antibody (Upstate Biotechnology)
Assay: fluorescence polarization competition; competitor of the fluorescent pp60c-src phosphopeptide

Substance: unphosphorylated peptide (same sequence as the pp60c-src C-terminal phosphoregulatory peptide) (from UniProt P12931 524-536)
- total shift in polarization: < 10 mP

From patent US20070026475A1
